The text below walks through data of US20250325664A1, “COMBINATION THERAPY WITH AN ANTI-COLONY STIMULATING FACTOR 1 RECEPTOR ANTIBODY AND A JAK INHIBITOR” (Incyte Corporation, priority 2024, published 2025).

Data set [1] concerns subjects with cGVHD. Briefly: Clinical study of axatilimab given as a single agent to subjects with cGVHD after at least two prior lines of systemic therapy.
For data set [2], the system named is subjects with cGVHD. As to conditions: human, in vivo.
Data set [3] in a line: Population PK/PD model of axatilimab: post-hoc exposures and pediatric simulation. The arrangement: species or system human. The settings on record: five participants aged 12 to 17 years in cGVHD studies vs adults of same dose groups. The source says: In addition, the developed population PK/PD model for axatilimab was extrapolated to simulate PK in pediatric patients aged 12 to 17 years, using standard allometric exponents of 0.75 for clearance-related parameters and 1.0 for volume of distribution-related parameters.

“axatilimab: humanized IgG4 monoclonal antibody that binds CSF-1R; heavy chain SEQ ID NO:2, light chain SEQ ID NO:3”: the results for the “participants with treatment-emergent adverse events (TEAEs)” value in the data set with subjects with cGVHD [1] (0.3 mg/kg Q2W), in the data set on subjects with cGVHD [1] (1 mg/kg Q2W) and in the data set with subjects with cGVHD [1] (3 mg/kg Q4W) were 6%, 22% and 18%, respectively. Further, the “reported CMV infections” value with subjects with cGVHD [1] (0.3 mg/kg Q2W) was “no CMV infections were reported”. For the same substance, in the data set on subjects with cGVHD [1] (0.3 mg/kg Q2W cohort, first 6 cycles), the “participants with reduction in modified Lee Symptom Scale (mLSS) score ≤7 points” value is reported as 55%. Also, the “frequency of treatment-related AEs, any grade and ≥Grade 3” value in the data set with subjects with cGVHD [1] (0.3 mg/kg Q2W vs 1 mg/kg Q2W vs 3 mg/kg Q4W) is listed as “showed dose dependency, with lowest incidence at 0.3 mg/kg Q2W”. The “objective response rate (ORR), primary endpoint” value came to 73.8% in the data set with subjects with cGVHD [1] (0.3 mg/kg Q2W, first 6 cycles); 66.7% with subjects with cGVHD [1] (1 mg/kg Q2W, first 6 cycles); 50% in the data set on subjects with cGVHD [1] (3 mg/kg Q4W, first 6 cycles). Moreover, in the data set on subjects with cGVHD [1] (all dose cohorts), the “most common TEAEs” value was “elevated aspartate aminotransferase/alanine aminotransferase (AST/ALT), creatine phosphokinase (CPK), lipase, amylase, and lactate dehydrogenase levels as well as periorbital edema”. The “reported CMV infections (number)” value with subjects with cGVHD [1] (higher dose cohorts) was 2. For the same substance, in the data set with subjects with cGVHD [2], the severity of infections result is on record as “Most infections were mild”. For the same substance, the “post-hoc PK exposures in participants aged 12 to 17 years” value in data set [3] is “comparable to those observed in adult participants from the same dose groups”.
